Experiment: soluble on expression in E. coli; label from the status in PepcDB or PDB records

Row | Sequence | soluble on expression in E. coli
1 | MKKMLVLLFVCLLVLAGCSSKSEPQGGGAAKKAEPKVMKMAVATSKDRSLTKGLYKFAEIVEKETNGSIKVEVYPDGQLGGDVAVFEALKMGTIQGSTMSTGPIASFAPRIGVLDLPFLFKDRETAYKVLDGKIGQDLLNDLPSVGVIGLNYWENGFRHLTNNKREVKSVDDIKGLKIRTLENDLHIDLWKELGATPVPMVFTELFTALEQHVVDGQENPVGNVAINKFYEVQKYLTKTGHVYNASPLLISKKFWDTLTDKEKDIIKKAAEEARDYQRKLNQEEDEKMFDYLKQQGMVITELSPEEKQKFVEKVQPIYQKYAPKFGQDLVNELINAGK | not soluble
2 | MKKRILSAVLVSGVTLSAAASVHAEDYDSQIAATNNAISNLASQQEAAQAQVATIQSQVSTLRTQKTELEAKNAELEKVSADLESEIQELSSKIVARQDSLAKQARSAQQNNTATSYINSILNSKSISEAITRITAISKVVTANNDLLTKQESDQKELAAKQEENQAAINTIAANKSELETTEAGLTTQQAELEAAQVTLAAELATAQNEKTSLVSAKSTAESVAASTAASVAQSQAIAESEATAQVVASSEAATSVASSEVAATSEAVAQPSETPVSETSTASEAAQEPASSETSEVQPESAAPAVSEAPASVAPVATSEAAPATSEAPASVAPVATSEAAPAVSEAPAPAAETHKVSAASTPNTYPVGQCTWGVKSLAPWAGNNWGNAKNWIASAQAAGHSVGTTPVAGAIAVWPNDGGGYGHVAYVTSASGANSIQVMESNYAGNMSISNYRGTFDPTSSAHGGSVFYIYPLEHHHHHH | soluble
3 | TTSRQIGSDDNTSLGTNISIDGMPLSNDAMRTQLYGITGVDRSDLYVADRTVTRRTGMNAGIDLRTISTDHIETIEIERGISSVGEGNLSSGAIRIRTKQGSAPLQMRVKADPLSKLAYVGKGFKVSKRGASIHTGIDFLHNKPDVREVLDSYKRSTLHARYSDQLNYGDMIVDLGIGLMQTFSIQDSKSDQLVNEYEETYNSKYLRSSLSFDAKVRFSGSWLNSIDWLLSADYTSDLLKRKKYYISTSGPKSMPVATESGEHEGVFLPSAYYAYYEIDNQPLYFFSRFKANTDINFTERHHHHLLYGLEARSSKNIGRGVVADPTRPPYPGNNSYIRPRPNYNIPASVYAAFFVEDRASVEWGANRLGIQAGLRATHLFNLPSSYALSRKMLIEPRIKANWQYRAEHLSINLRAGYGMENKLPTLDHLYPDKIYRDFMVLNAYMQNPELDHLITYTYIHNPENPAIRENRNVKKEIGIDMTYKRFDFSLTLFHEESRRGFEYFDSYLPIAFDRYTKLIAPLPPGHKPQKEDYIQEHHKDFFVIPTVQNSAKVVKRGIEFRLRTPYLKAINTQVEVNGAYYHTLYASGIPIMFRPIVSEYEQALYPYVGYYEGSLHKHYQRFNTNVWVNTHFPRYKLIFTSFFQIIWHDASYRGHEESEFPYAYMDLDGVVHPTSKAAILEAAATNDILKYLSRERTELYYRATYKPISLRINFKATKEFSDRMRLAFFVDNIIDINPKYKQANNTTERDWSIPYFGIETTFTL | not soluble
4 | MSLADPGREGHLEQRILQVLTEAGSPVKLAQLVKECQAPKRELNQVLYRMKKELKVSLTSPATWCLGGTDPEGEGPAELALSSPAERPQQHAATIPETPGPQFSQQREEDIYRFLKDNGPQRALVIAQALGMRTAKDVNRDLYRMKSRHLLDMDEQSKAWTIYRPEDSGRRAKSASIIYQHNPINMICQNGPNSWISIANSEAIQIGHGNIITRQTVSREGHHHHHH | not soluble
5 | MNIAAVAGSPTGDMIEIGQHLRVRHFCYQTAKQRGDIGKIIRIAFAEVKFRCDSQIPLQRQTATNVADMFMHAKNFLHYNDHWQWAIALLWSGMVSRHVIPL | not soluble
6 | SESETRVKSVRTGRKPIGNPEDEQETSKPSDDEFLRGKRVLVVDDNFISRKVATGKLKKMGVSEVEQCDSGKEALRLVTEGLTQREEQGSVDKLPFDYIFMDCQMPEMDGYEATREIRKVEKSYGVRTPIIAVSGHDPGSEEARETIQAGMDAFLDKSLNQLANVIREIESKR | not soluble
7 | MLAQCFQPNSSGIYPQEKLPLILETGVSPDYALIDSGNGKKLERYGAYRIIRPEGQALWKPALSEKHWANVDAIFTGNRDEEGVGRWYFPKKPLDETWPLSWNGLSFLGRFTSFRHVGVFPEQDAHWRFMEKQIVNATRPIKLLNLFGYTGIASLISARAGANVTHVDASKKAIAWAKANQEKAGLSDRSIRWICDDAVKFVERELRRQKTYDMILLDPPAYGRGPHGEIWQLFDHLPAMITNCRKLLSDEPLAVVLTAYSIRASFYALHTLMRDEFINLGGTVESGELILREKTTGRALSTSLFSRWIA | not soluble
8 | ASSKNLSETLFQNHKQAKETSSLTQYMPSSLELLDTRREQSSQAWYRNLRRLQWIWQGVDPVEQEEILARIASSKHSRTHDEWLDTVMGYRSGNWTYEWTRVGMLHQKQAAERQGEEAADQMFAAALYYSIAGYPHLRNDNLALQAQVLANNAYQEAAKLTGFVVKRLEFSYQNKKIAGYLHLRNTDSPKPVVLVSAGLDSLQTDMWRLFRDYLAKRDIAMLTIDMPSLGASSHWPLTEDSSCLHQAVLNQLADLPWVDHFRIGLIGFRFGGNAMARLAFLESDKVKACVSLGAPIHDIFTSPNKLAAMPKMYLDVLASRLGKNVVDVRSLSGQLMAWSLKVQGFMSGRRTKTPILALGLEGDPVSPYSDNQLVALFSQGGQAKKVKSKTISQGYEQSLDLAINWLEDELC | not soluble
9 | MAHHHHHHMDTRGLRHLKSYLGKEGEQLARAKRASDVVPVLAARQAAAAAAARATAADVTTVSNTVPAPLSPSVMKYLGGRLASGATHKLSRTQMALAAALAAPGAPSTRGHAEGSENGETALAVTRAKVADMAAAVDTLAVSALELAARRAAEDTEARRSTAESSSLFVLVDTSSEAAEVAGQLEGRYGLTVLLLRDDNACRHPTFPSPASRAGVSTLRGTTSKTPAAERRKTKSNSRTVDEVAPKDEATESTPALAGAVVVVVATPAAFLAVDRRSAIWKFIGSCALLLRRAPTHTGSLLHTLKGIKAAASSSPTKTTPHALNAQRWACIGHVPAIAVLAAEQKWLTEPELDLLTTLRVERHVGSGVGVVSKSTEASVSSAVAALRAPVTVHYAVAQGTHRFQFLFGLLKGLAPHRGIVVHVATRECVAFLYDTLYSLVGELPSHVQLLSDYEGASAYTNMHTTADRQRLCVAFDSTVESGQNGKTAAVLLSCHGLVPRRGSVFLQYDVIPDLLNYNQFIAEVLSPGAVAADAGNDAGGTAPSAAAEVAVRRERMARRRKRSTSPTPAPVAARRVGADAANSAADASSGSKAAIPAAVNYTHILLLFRPNEVAGALRHLRRDGASRYRLEFRELGPRAGGRYFLIGEKLKSMNKKLFPVQNAAYDAYKATMRTYSTIGPRDVYDETKVSLEKVAEEFGYTELPLLDLRLKDTVFRPKEDYYRAARQKQDAERRAYKAFVQGNIVGESPEEHVADSVA | soluble
10 | MAPATERNRDAILAVLKDELRSPGTVLEIASGTGEHGAYFAPQLPDYFWQPSDPNEESRRSIAAWRSHVNAPNLGEAIAIDVTRSDWVESVPEFPQPVVAIAAINLIHISPWEATLGLFAGAKQLLSVDGLIYLYGAYKRGGQHTAPSNEAFDASLQARNPAWGARNLEDVTAVAEAEQFRLDRIVEMPSNNLSVCFRAIALEHHHHHH | not soluble
11 | MAFPFDILHLEIIRSTLESEKDRCEAKEKFGTIIDNLNGPADIEKYESLVQKAFLHANAETKLESIGFRVGRQLVEKVSKESPKLVTELEIVKFICKDFWSSVFGKQVDNLRTNHQGVYVVQDGRFTTLRSFPEGDQYVKESGYFLAFPCGLLRGALAGLNIRAIVTPTIESVPSVKFHIQVQPK | not soluble
12 | MGSDKIHHHHHHMNILITGMAGFIGHAVAKRLAAEGHDIVGIDNLNDYYDVSLKQARLDDLAAWPNVRFERLDLADRAGMERLFADTRFERVIHLAAQAGVRYSLDNPHVYAQSNLVGHLNVLEGCRHQQVPHLIYASSSSVYGQNAQVPFSTADAVDHPISLYAATKKANELMTHSYSHLYGIPATGLRFFTVYGPWGRPDMAMFKFTRAILADEPLPVFNHGDLSRDFTYIDDIVEGVVRIMQAIPEADPDSPGASPDQSTAPFALYNIGHGSPVALMDFVHALERATGRTARCDFKPMQPGDVPRTWADTDALFEKVGYRPQVGVDEGVARFVEWYRSFHGI | not soluble
13 | QGMQTKKAFLYVFNTMSDWEYGYLIAELNSGRYFKKDLAPLKVITVGANKEMITTMGGLRIKPDISLDECTLESKDLLILPGGTTWSEEIHQPILERIGQALKIGTIVAAICGATDALANMGYLDTRKHTSNNLEYTKMVCPNYKGEKFYELGPAVSDANLVTASGIAPLEFAMEVLKKIDVFTLDALHSWYNLNKTHKPEYFFQLMNSINK | soluble
14 | MSTLQAAAHGRIVQLSRIRKEIADLAKNKRRFIKDFRKIEKCKDIFQFKIIGDGVLYKNMIFTLTLDVNVEYPFKPPYLKFCHNVYHPNVDPVTCELCSPMLLQENWKPETTMEDVLLNLIVLLNEPDLSRPVNIDAAHDYIHNKVEFVKKSTELAKKWN | not soluble
15 | MIPGTIPTSYLVPTADTEATGVVSLSARAAMLNNMDSAPLSNGGDVDLYDAFYQRLLALPESASSETLKDSIYQEMNAFKDPNSGDSAFVSFEQQTAMLQNMLAKVEPGTHLYEALNGVLVGSMNAQSQMTSWMQEIILSGGENKEAIDW | not soluble
16 | MAQKSALIILAAEGAEEMEVIITGDVLARGEIRVVYAGLDGAEPVKCARGAHIVPDVKLEDVETEKFDIVILPGGQPGSNTLAESLLVRDVLKSQVESGGLIGAICAAPIALLSHGVKAELVTSHPSVKEKLEKGGYKYSEDRVVVSGKIITSRGPGTAFEFALKIVELLEGKDKATSLIAPMLLKL | not soluble
17 | MRGEFYQQLTNDLETARAEGLFKEERIITSAQQADITVADGSHVINFCANNYLGLANHPDLIAAAKAGMDSHGFGMASVRFICGTQDSHKELEQKLAAFLGMEDAILYSSCFDANGGLFETLLGAEDAIISDALNHASIIDGVRLCKAKRYRYANNDMQELEARLKEAREAGARHVLIATDGVFSMDGVIANLKGVCDLADKYDALVMVDDSHAVGFVGENGRGSHEYCDVMGRVDIITGTLGKALGGASGGYTAARKEVVEWLRQRSRPYLFSNSLAPAIVAASIKVLEMVEAGSELRDRLWANARQFREQMSAAGFTLAGADHAIIPVMLGDAVVAQKFARELQKEGIYVTGFFYPVVPKGQARIRTQMSAAHTPEQITRAVEAFTRIGKQLGVIA | soluble
18 | EKFPLVLMLEPTHLCNLACSGCGRIREYADTIQQMMSLEECLRSVDECPAPVVTITGGEPFLYTHIYELIPEVLDRGKHVYLCTNGLLLEKALENVKVHPNFYLNVHMDGLEETHDRILERKGTFKVAIEGIRKAKAKGFRVCTNTTIFKDTDLVEIEMLFSLLTDLGVDGILVAPGFDYEAVG | not soluble
19 | DVQITQSPSYLAASPGETITLNCRASKSISKYLAWYQEKPGKTNKLLIYSGSTLQSGIPSRFSGSGSGTDFTLTISSLEPEDFAMYFCQQHNEYPYTFGGGTKLEIKRTVAAPSVFIFPPSDEQLKSGTASVVCLLNNFYPREAKVQWKVDNALQSGNSQESVTEQDSKDSTYSLSSTLTLSKADYEKHKVYACEVTHQGLSSPVTKSFNRGEC | soluble
20 | MDAIFLKLDNIKGESQVEGFEDQIEIMSYSHNVAMQVNNDVSLTERTSGRAHVGEMSLTKFVDLATPVLNEYCCSGRLIRTAVLTLCRNDDGKMRSLIVYTLTNVLISQLSVSGGAGGKPVETMSLNFTKIEWQITAEKSDGAQQESRTSVWDLAMNQIGK | not soluble

— the DeepSol protein solubility set
